Reference: the RNAGym collection of RNA variant scans (doi:10.7554/elife.80360)

B1: Hairpin Ribozyme (parent)
chain: GUCCUCUUUCACGUGCGCGUGAAAGAGAGAAGUGAACCAGAGAAACACACGUUGUGGUAUAUUACCUGGUA

Variants of: B1
Assay: self-cleavage, relative activity (ratio to wild type); higher = more cleavage; co-transcriptional

| Variant | self-cleavage |
| --- | --- |
| GUCCUCUUUCACGUGCGCGUGUAAGAGAGAAGUGAACCAGAGAAACACACGUUGUGGUAGAUUACCUGGUA [A22U U60G] | 0.611 |
| GUCCUCUUUCACGUGCGCGUGUAAGAGAGAAGUGAACCAGAGAAACACACGUUGUGGUAUAAUACCUGGUA [A22U U62A] | 0.161 |
| GUCCUCUUUCACGUGCGCGUGUAAGAGAGAAGUGAACCAGAGAAACACACGUUGUGGUAUACUACCUGGUA [A22U U62C] | 0.127 |
| GUCCUCUUUCACGUGCGCGUGUAAGAGAGAAGUGAACCAGAGAAACACACGUUGUGGUAUAUUACCUGGAA [A22U U70A] | 0.768 |
| GUCCUCUUUCACGUGCGCGUGUAAGAGAGAAGUGAACCAGAGAAACACACGUUGUGGUAUAUUACCUGGGA [A22U U70G] | 0.674 |
| GUCCUCUUUCACGUGCGCGUGACAGAGAGAAGUGAACCAGAGAAACACACGUUGUGGUAUAUUACCUGGUA [A23C] | 0.822 |
| GUCCUCUUUCACGUGCGCGUGACCGAGAGAAGUGAACCAGAGAAACACACGUUGUGGUAUAUUACCUGGUA [A23C A24C] | 0.718 |
| GUCCUCUUUCACGUGCGCGUGACGGAGAGAAGUGAACCAGAGAAACACACGUUGUGGUAUAUUACCUGGUA [A23C A24G] | 0.85 |
| GUCCUCUUUCACGUGCGCGUGACAGAGCGAAGUGAACCAGAGAAACACACGUUGUGGUAUAUUACCUGGUA [A23C A28C] | 0.349 |
| GUCCUCUUUCACGUGCGCGUGACAGAGGGAAGUGAACCAGAGAAACACACGUUGUGGUAUAUUACCUGGUA [A23C A28G] | 0.977 |
| GUCCUCUUUCACGUGCGCGUGACAGAGAGACGUGAACCAGAGAAACACACGUUGUGGUAUAUUACCUGGUA [A23C A31C] | 0.185 |
| GUCCUCUUUCACGUGCGCGUGACAGAGAGAUGUGAACCAGAGAAACACACGUUGUGGUAUAUUACCUGGUA [A23C A31U] | 0.179 |
| GUCCUCUUUCACGUGCGCGUGACAGAGAGAAGUGGACCAGAGAAACACACGUUGUGGUAUAUUACCUGGUA [A23C A35G] | 0.942 |
| GUCCUCUUUCACGUGCGCGUGACAGAGAGAAGUGACCCAGAGAAACACACGUUGUGGUAUAUUACCUGGUA [A23C A36C] | 0.286 |
| GUCCUCUUUCACGUGCGCGUGACAGAGAGAAGUGAUCCAGAGAAACACACGUUGUGGUAUAUUACCUGGUA [A23C A36U] | 0.475 |
| GUCCUCUUUCACGUGCGCGUGACAGAGAGAAGUGAACCGGAGAAACACACGUUGUGGUAUAUUACCUGGUA [A23C A39G] | 0.248 |
| GUCCUCUUUCACGUGCGCGUGACAGAGAGAAGUGAACCAGAGUAACACACGUUGUGGUAUAUUACCUGGUA [A23C A43U] | 0.115 |
| GUCCUCUUUCACGUGCGCGUGACAGAGAGAAGUGAACCAGAGAGACACACGUUGUGGUAUAUUACCUGGUA [A23C A44G] | 0.056 |
| GUCCUCUUUCACGUGCGCGUGACAGAGAGAAGUGAACCAGAGAUACACACGUUGUGGUAUAUUACCUGGUA [A23C A44U] | 0.129 |

| Variant | self-cleavage |
| --- | --- |
| GUCCUCUUUCACGUGCGCGUGACAGAGAGAAGUGAACCAGAGAAGCACACGUUGUGGUAUAUUACCUGGUA [A23C A45G] | 0.173 |
| GUCCUCUUUCACGUGCGCGUGACAGAGAGAAGUGAACCAGAGAAACGCACGUUGUGGUAUAUUACCUGGUA [A23C A47G] | 0.132 |
| GUCCUCUUUCACGUGCGCGUGACAGAGAGAAGUGAACCAGAGAAACACACGUUGUGGUCUAUUACCUGGUA [A23C A59C] | 0.193 |
| GUCCUCUUUCACGUGCGCGUGACAGAGAGAAGUGAACCAGAGAAACACACGUUGUGGUGUAUUACCUGGUA [A23C A59G] | 0.143 |
| GUCCUCUUUCACGUGCGCGUGACAGAGAGAAGUGAACCAGAGAAACACACGUUGUGGUAUCUUACCUGGUA [A23C A61C] | 0.143 |
| GUCCUCUUUCACGUGCGCGUGACAGAGAGAAGUGAACCAGAGAAACACACGUUGUGGUAUAUUGCCUGGUA [A23C A64G] | 0.646 |
| GUCCUCUUUCACGUGCGCGUGACAGAGAGAAGUGAACCAGAGAAACACACGUUGUGGUAUAUUACCUGGUU [A23C A71U] | 0.832 |
| GUCCUCUUUCACGUGCGCGUGACAGAGAGAAGUGAAACAGAGAAACACACGUUGUGGUAUAUUACCUGGUA [A23C C37A] | 0.18 |
| GUCCUCUUUCACGUGCGCGUGACAGAGAGAAGUGAACAAGAGAAACACACGUUGUGGUAUAUUACCUGGUA [A23C C38A] | 0.161 |
| GUCCUCUUUCACGUGCGCGUGACAGAGAGAAGUGAACUAGAGAAACACACGUUGUGGUAUAUUACCUGGUA [A23C C38U] | 0.398 |
| GUCCUCUUUCACGUGCGCGUGACAGAGAGAAGUGAACCAGAGAAAGACACGUUGUGGUAUAUUACCUGGUA [A23C C46G] | 0.092 |
| GUCCUCUUUCACGUGCGCGUGACAGAGAGAAGUGAACCAGAGAAACACAAGUUGUGGUAUAUUACCUGGUA [A23C C50A] | 0.318 |
| GUCCUCUUUCACGUGCGCGUGACAGAGAGAAGUGAACCAGAGAAACACAGGUUGUGGUAUAUUACCUGGUA [A23C C50G] | 0.259 |
| GUCCUCUUUCACGUGCGCGUGACAGAGAGAAGUGAACCAGAGAAACACAUGUUGUGGUAUAUUACCUGGUA [A23C C50U] | 0.373 |
| GUCCUCUUUCACGUGCGCGUGACAGAGAGAAGUGAACCAGAGAAACACACGUUGUGGUAUAUUAACUGGUA [A23C C65A] | 0.818 |
| GUCCUCUUUCACGUGCGCGUGACAGAGAGAAGUGAACCAGAGAAACACACGUUGUGGUAUAUUAUCUGGUA [A23C C65U] | 0.282 |
| GUCCUCUUUCACGUGCGCGUGACAGAGAGAAGUGAACCAGAGAAACACACGUUGUGGUAUAUUACAUGGUA [A23C C66A] | 0.218 |
| GUCCUCUUUCACGUGCGCGUGACAGAGAGAAGUGAACCAGAGAAACACACGUUGUGGUAUAUUACUUGGUA [A23C C66U] | 0.448 |
| GUCCUCUUUCACGUGCGCGUGACAAAGAGAAGUGAACCAGAGAAACACACGUUGUGGUAUAUUACCUGGUA [A23C G25A] | 0.235 |
